The supplement of paper PMC10065799, “High-throughput profiling of sequence recognition by tyrosine kinases and SH2 domains using bacterial peptide display” (eLife, 2023)

How the values were obtained:
c-Src SH2 = test: SH2 binding enrichment of the phosphorylated peptide, bacterial display (enrichment ratio); higher = better substrate or ligand; peptides without Tyr show the background
Grb2 SH2 = Grb2 SH2 (UniProt P62993); test: as above
SHP2-C SH2 = test: as above
Fyn = Fyn (UniProt P06241); test: phosphorylation enrichment, bacterial display (enrichment ratio); higher = better substrate or ligand; peptides without Tyr show the background
Sequence of Fyn (P06241 whole entry, looked up): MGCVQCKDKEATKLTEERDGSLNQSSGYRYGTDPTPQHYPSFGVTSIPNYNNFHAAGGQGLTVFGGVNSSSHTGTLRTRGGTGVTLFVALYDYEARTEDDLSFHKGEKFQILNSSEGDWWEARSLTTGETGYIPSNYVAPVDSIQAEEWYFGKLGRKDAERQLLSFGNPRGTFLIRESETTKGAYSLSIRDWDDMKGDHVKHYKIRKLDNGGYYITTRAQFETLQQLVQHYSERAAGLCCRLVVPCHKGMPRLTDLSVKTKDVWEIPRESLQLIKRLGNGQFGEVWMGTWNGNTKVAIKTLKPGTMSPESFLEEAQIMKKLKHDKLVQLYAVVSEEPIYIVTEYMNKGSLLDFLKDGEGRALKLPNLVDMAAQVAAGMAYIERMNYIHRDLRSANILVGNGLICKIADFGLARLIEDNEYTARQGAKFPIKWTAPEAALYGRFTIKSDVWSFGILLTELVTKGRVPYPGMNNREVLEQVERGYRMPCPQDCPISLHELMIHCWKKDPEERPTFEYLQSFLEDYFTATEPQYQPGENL

MERTK = MERTK (UniProt Q12866); test: as above
EPHB2 = EPHB2 (UniProt P29323); test: as above
Sequence of EPHB2 (P29323 whole entry, looked up): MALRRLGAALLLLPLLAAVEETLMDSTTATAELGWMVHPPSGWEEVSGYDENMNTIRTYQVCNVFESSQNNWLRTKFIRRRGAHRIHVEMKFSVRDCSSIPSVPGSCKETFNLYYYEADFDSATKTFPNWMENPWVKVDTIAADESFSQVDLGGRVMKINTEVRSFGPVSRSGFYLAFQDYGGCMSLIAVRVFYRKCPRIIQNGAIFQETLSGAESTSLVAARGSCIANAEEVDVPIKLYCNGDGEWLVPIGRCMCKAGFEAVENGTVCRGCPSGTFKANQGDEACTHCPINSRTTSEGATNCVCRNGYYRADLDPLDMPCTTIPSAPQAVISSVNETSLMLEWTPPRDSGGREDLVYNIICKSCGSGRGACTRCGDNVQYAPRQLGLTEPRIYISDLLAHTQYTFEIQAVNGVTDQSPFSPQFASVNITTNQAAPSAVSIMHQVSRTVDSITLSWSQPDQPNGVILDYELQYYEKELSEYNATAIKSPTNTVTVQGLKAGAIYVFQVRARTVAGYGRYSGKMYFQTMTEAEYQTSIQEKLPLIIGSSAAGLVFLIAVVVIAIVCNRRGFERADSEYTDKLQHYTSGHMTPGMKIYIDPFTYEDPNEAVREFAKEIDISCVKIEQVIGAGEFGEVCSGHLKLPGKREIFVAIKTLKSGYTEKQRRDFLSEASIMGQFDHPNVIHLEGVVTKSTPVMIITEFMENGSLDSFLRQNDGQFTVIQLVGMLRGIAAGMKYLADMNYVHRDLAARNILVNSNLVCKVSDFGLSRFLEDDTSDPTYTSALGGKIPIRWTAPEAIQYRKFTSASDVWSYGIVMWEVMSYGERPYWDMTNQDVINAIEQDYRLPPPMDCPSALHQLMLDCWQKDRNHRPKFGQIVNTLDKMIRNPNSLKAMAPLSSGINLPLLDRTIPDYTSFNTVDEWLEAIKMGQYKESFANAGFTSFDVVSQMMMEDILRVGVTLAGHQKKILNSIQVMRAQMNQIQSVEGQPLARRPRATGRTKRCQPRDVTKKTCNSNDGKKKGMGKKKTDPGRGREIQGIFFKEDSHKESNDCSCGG

Hck = Hck (UniProt P08631); test: as above
Sequence of Hck (P08631 whole entry, looked up): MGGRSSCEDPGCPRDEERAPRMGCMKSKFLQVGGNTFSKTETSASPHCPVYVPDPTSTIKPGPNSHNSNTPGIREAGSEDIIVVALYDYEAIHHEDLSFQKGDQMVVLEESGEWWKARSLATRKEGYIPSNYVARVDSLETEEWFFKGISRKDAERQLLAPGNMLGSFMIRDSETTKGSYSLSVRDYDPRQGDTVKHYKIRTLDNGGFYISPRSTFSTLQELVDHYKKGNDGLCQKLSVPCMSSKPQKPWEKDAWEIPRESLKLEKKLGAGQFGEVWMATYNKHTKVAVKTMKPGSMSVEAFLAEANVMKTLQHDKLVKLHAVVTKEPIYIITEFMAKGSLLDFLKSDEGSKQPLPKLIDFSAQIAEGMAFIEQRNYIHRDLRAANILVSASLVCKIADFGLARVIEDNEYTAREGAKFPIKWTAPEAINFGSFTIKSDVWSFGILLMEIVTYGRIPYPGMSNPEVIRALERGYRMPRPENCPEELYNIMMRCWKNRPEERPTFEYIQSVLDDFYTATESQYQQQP

Jak2 = Jak2 (UniProt O60674); test: as above
Sequence of Jak2 (O60674 whole entry, looked up): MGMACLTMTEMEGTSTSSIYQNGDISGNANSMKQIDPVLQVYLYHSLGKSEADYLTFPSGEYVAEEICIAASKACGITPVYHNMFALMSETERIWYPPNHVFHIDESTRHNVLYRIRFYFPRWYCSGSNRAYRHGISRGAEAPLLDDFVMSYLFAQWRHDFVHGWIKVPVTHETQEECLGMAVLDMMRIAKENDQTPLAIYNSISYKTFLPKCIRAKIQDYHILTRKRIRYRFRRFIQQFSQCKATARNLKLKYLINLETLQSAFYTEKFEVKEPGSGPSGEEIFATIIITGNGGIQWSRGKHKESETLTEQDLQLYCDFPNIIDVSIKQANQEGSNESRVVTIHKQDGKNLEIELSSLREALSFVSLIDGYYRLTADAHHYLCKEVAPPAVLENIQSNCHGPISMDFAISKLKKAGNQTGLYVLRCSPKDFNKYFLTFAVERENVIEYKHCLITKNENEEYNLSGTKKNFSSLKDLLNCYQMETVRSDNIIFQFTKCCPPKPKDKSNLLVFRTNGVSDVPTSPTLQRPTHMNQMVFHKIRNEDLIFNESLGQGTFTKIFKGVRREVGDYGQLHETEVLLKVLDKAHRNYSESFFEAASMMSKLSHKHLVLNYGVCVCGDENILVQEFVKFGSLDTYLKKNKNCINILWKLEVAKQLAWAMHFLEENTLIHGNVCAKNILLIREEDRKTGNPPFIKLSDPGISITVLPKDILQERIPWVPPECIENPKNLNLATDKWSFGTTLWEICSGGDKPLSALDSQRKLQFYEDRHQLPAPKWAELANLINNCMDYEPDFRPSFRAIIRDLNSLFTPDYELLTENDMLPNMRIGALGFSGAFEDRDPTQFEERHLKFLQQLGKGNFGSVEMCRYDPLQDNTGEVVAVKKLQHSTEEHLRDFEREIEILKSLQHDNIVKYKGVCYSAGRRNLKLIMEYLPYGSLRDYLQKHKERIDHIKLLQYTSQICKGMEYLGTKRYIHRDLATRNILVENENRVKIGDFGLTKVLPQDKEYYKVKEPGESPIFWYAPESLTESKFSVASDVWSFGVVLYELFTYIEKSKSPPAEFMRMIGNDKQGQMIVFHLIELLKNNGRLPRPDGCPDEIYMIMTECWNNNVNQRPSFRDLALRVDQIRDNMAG

c-Src = test: as above
c-Abl (mouse) = test: as above
AncSZ = test: as above
Fer (mouse) = test: as above
Fes = Fes (UniProt P07332); test: as above
FGFR3 = FGFR3 (UniProt P22607); test: as above
Sequence of FGFR3 (P22607 whole entry, looked up): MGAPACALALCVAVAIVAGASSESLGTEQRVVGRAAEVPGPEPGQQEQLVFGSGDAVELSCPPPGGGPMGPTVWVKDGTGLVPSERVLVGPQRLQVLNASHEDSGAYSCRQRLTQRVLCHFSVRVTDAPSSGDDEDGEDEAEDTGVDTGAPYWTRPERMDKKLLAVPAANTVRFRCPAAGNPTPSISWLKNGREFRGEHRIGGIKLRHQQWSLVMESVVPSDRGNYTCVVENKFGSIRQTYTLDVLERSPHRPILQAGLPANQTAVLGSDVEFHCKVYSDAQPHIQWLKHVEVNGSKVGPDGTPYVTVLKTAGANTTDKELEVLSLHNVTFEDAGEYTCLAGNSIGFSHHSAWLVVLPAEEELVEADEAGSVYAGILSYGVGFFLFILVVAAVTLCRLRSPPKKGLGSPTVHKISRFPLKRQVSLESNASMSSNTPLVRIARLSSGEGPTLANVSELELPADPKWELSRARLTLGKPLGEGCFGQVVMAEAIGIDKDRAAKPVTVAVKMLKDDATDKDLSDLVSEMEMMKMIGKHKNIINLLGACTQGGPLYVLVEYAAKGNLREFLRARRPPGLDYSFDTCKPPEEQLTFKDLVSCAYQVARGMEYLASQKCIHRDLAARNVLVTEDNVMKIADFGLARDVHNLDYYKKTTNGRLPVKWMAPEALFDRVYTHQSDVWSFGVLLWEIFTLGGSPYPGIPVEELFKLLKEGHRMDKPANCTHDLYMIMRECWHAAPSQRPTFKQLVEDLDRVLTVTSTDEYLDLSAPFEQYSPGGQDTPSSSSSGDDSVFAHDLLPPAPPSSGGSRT

FGFR1 = FGFR1 (UniProt P11362); test: as above
Sequence of FGFR1 (P11362 whole entry, looked up): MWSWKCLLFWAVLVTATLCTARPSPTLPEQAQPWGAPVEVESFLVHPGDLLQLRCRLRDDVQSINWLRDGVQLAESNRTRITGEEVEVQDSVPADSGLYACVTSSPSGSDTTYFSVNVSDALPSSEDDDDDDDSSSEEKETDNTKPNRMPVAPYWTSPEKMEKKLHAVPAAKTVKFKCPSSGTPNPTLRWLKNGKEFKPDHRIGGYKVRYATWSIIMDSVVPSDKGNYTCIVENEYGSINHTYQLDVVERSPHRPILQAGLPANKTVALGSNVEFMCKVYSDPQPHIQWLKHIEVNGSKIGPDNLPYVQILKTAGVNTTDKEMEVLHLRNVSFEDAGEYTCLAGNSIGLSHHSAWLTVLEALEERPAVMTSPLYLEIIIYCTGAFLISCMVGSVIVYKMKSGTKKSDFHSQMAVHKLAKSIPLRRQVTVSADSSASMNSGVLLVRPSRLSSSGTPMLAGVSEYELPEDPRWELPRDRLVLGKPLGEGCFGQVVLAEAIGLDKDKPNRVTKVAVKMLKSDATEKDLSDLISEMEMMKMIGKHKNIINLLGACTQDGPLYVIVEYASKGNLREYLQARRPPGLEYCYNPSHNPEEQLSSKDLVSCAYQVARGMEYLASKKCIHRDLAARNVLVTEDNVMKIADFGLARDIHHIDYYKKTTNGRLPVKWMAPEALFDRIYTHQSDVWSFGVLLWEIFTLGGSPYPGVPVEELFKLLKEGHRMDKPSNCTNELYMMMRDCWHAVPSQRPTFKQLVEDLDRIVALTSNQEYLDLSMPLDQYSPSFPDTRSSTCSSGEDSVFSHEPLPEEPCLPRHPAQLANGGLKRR

EPHB1 = EPHB1 (UniProt P54762); test: as above
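Throughout, for SH2 binding enrichment of the phosphorylated peptide, bacterial display: peptide library displayed on the E. coli surface as eCPX fusions, selected cells deep-sequenced, score is each peptide's frequency after selection divided by its frequency in the input.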
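Throughout, for phosphorylation enrichment, bacterial display: 11-residue human phosphosite peptides and single-mutation variants displayed on the E. coli surface, counted by deep sequencing, each peptide's frequency after selection divided by its frequency in the unselected input library; frequency after pTyr selection over input frequency; kinase dosed for 20-30% of maximal phosphorylation in three min.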

Sequence	SH2 binding enrichment (c-Src SH2)	SH2 binding enrichment (Grb2 SH2)	SH2 binding enrichment (SHP2-C SH2)	phosphorylation enrichment (Fyn)	phosphorylation enrichment (MERTK)	phosphorylation enrichment (EPHB2)	phosphorylation enrichment (Hck)	phosphorylation enrichment (Jak2)	phosphorylation enrichment (c-Src)	phosphorylation enrichment (c-Abl (mouse))	phosphorylation enrichment (AncSZ)	phosphorylation enrichment (Fer (mouse))	phosphorylation enrichment (Fes)	phosphorylation enrichment (FGFR3)	phosphorylation enrichment (FGFR1)	phosphorylation enrichment (EPHB1)
WAMLAYNRSKL [WWOX_Y293]	0.565	1.29	1.09	0.347	0.37	0.417	0.435	1.02	0.266	0.541	1.25	0.525	1.04	0.611	0.431	0.453
ADRSCYDLSCH [GARS1_Y467]	0.985	0.79	0.968	0.604	0.457	0.528	0.561	0.798	0.472	0.631	0.92	0.431	0.91	0.586	0.433	0.486
CPPKVYELMRA [ABL2_Y515]	1.53	0.944	0.693	1.13	3.81	2.41	1.81	0.53	1.33	0.585	0.662	6.41	1.04	0.679	0.73	8.38
KVITDYYVDMK [MPP4_Y566]	2.9	0.875	0.704	0.557	0.577	0.865	0.576	1.4	0.597	0.758	1.26	0.496	1.07	2.64	3.97	1.71
RRIHNYRGHLW [VHL_Y112_S111N]	0.797	1.01	0.712	0.481	0.597	0.421	0.509	0.501	0.607	0.609	0.577	0.27	0.738	0.511	0.433	0.714
NFDRIYIYHLR [MYOF_Y1137_V1136I]	1.03	1.39	6.21	0.732	0.63	0.648	0.742	1.1	0.923	0.734	1.17	0.611	1.2	0.787	0.548	0.701
FQLENCCNGGG [INS_Y108_Y108C_YF]	0.537	0.772	0.444	0.445	0.516	0.586	0.504	0.85	0.467	0.546	0.896	0.564	0.944	0.523	0.442	0.509
KPLMPCMRFSR [SMARCE1_Y73_Y73C_YF]	0.477	0.858	0.912	0.466	0.506	0.448	0.439	0.707	0.469	0.88	0.92	0.443	0.916	0.502	0.393	0.39
CTLLPYFSAPV [DGKE_Y269_R273P_YF]	0.462	0.71	0.622	0.518	0.453	0.677	0.557	1.19	0.569	0.896	1.24	0.493	1.34	0.826	0.615	0.66
ANQDDYISFRH [IMP4_Y226]	0.46	0.821	0.617	0.899	0.482	0.469	1.19	0.901	1.11	0.557	1.17	0.357	0.841	0.967	1.07	0.507
HTVVSYAKVRA [CLOCK_Y378_E380K]	1.12	1.11	14.5	1.23	0.934	0.972	0.85	1.04	0.489	0.65	1.2	0.673	1.3	0.933	0.917	0.749
IDGLEYLHSQG [STK11_Y166]	0.478	0.779	0.57	0.619	0.368	0.499	0.413	0.796	0.417	0.574	0.737	0.426	0.906	0.637	0.445	0.578
KVKPIYFHTRG [AR_Y916_Q920R]	1.84	2.2	2.07	0.448	0.456	0.498	0.527	0.885	0.477	0.633	0.853	0.416	0.892	0.614	0.598	0.452
FSLIHYAGIVV [MYH7_Y582_D587V]	0.689	1.01	2.77	0.532	0.45	0.59	0.568	1.3	0.621	1.04	1.13	0.729	1.37	0.777	0.482	0.652
HNLDYYKMTTN [FGFR3_Y648_K650M]	0.757	0.756	1	0.454	0.68	1.2	0.607	11.2	0.894	0.591	1.91	0.64	1.04	14	17.7	2.13
PLQSEYSSIST [ITGB4_Y1760_T1764S]	1.17	0.844	0.826	1.27	0.582	2.28	1.93	0.822	1.3	1.49	2.59	1.08	1.28	0.925	0.944	1.81
SGDDGYAKDAQ [TENM4_Y1530_K1535Q]	0.572	0.979	0.769	0.508	0.418	0.394	0.493	0.832	0.379	0.575	0.818	0.557	0.866	0.615	0.45	0.446
